# Measured values from article PMC5256927, “Proteolysis-Dependent Remodeling of the Tubulin Homolog FtsZ at the Division Septum in Escherichia coli” (PLoS ONE, 2017).
# B1: FtsZ (natural protein, E. coli, UniProt P0A9A6 1-383, looked up)
# chain: MFEPMELTNDAVIKVIGVGGGGGNAVEHMVRERIEGVEFFAVNTDAQALRKTAVGQTIQIGSGITKGLGAGANPEVGRNAADEDRDALRAALEGADMVFIAAGMGGGTGTGAAPVVAEVAKDLGILTVAVVTKPFNFEGKKRMAFAEQGITELSKHVDSLITIPNDKLLKVLGRGISLLDAFGAANDVLKGAVQGIAELITRPGLMNVDFADVRTVMSEMGYAMMGSGVASGEDRAEEAAEMAISSPLLEDIDLSGARGVLVNITAGFDLRLDEFETVGNTIRAFASDNATVVIGTSLDPDMNDELRVTVVATGIGMDKRPEITLVTNKQVQQPVMDRYQQHGMAPLTQEQKPVAKVVNDNAPQTAKEPDYLDIPAFLRKQAD
# notes: FtsZ, E. coli, cell division protein (tubulin homolog); schematic gives polymerization domain 1-316, unstructured linker 317-369, C-terminal region 370-383; plasmid pET-FtsZ; also called native FtsZ; wild type FtsZ; source: E. coli BL21 (λDE3), purified as described [24,25,72,73]
# B2: Alexa Fluor labeled FtsZ (FtsZ-AF488) (natural protein, E. coli, UniProt P0A9A6 1-383, looked up)
# chain: MFEPMELTNDAVIKVIGVGGGGGNAVEHMVRERIEGVEFFAVNTDAQALRKTAVGQTIQIGSGITKGLGAGANPEVGRNAADEDRDALRAALEGADMVFIAAGMGGGTGTGAAPVVAEVAKDLGILTVAVVTKPFNFEGKKRMAFAEQGITELSKHVDSLITIPNDKLLKVLGRGISLLDAFGAANDVLKGAVQGIAELITRPGLMNVDFADVRTVMSEMGYAMMGSGVASGEDRAEEAAEMAISSPLLEDIDLSGARGVLVNITAGFDLRLDEFETVGNTIRAFASDNATVVIGTSLDPDMNDELRVTVVATGIGMDKRPEITLVTNKQVQQPVMDRYQQHGMAPLTQEQKPVAKVVNDNAPQTAKEPDYLDIPAFLRKQAD
# modifications: Alexa Fluor 488 label (site not stated)
# notes: FtsZ, E. coli, as m1, labeled with Alexa Fluor; schematic gives regions 1-316, 317-369, 370-383; also called labeled fluorescent FtsZ; Fluorescence-labeled FtsZ; source: E. coli BL21 (λDE3), purified, labeled with Alexa Fluor 488; fluorescent active subunits obtained by cycles of polymerization and depolymerization
# How the values were obtained:
# Gfp-ZC67 (E. coli) = Gfp-ZC67 (E. coli) (UniProt P0A9A6)
# [1] = target: Gfp-ZC67(R379E) (E. coli) (UniProt P0A9A6)
# [2] = target: the molecule itself; experiment: co-sedimentation; polymers collected by ultracentrifugation (129,000xg, 30 min, 23°C) after 3 min with GTP (2 mM) and a regenerating system in 50 mM MES pH 6.5, 100 mM KCl, 10 mM MgCl2; FtsZ and/or Gfp-FtsZ, 10 μM total; pellets and supernatants by SDS-PAGE
# [3] = target: the molecule itself; experiment: cross-linking + other: sucrose gradient fractionation; without GTP; labeled FtsZ 24 μM in 50 mM MES pH 6.5, 100 mM KCl, 10 mM MgCl2; cross-linked with DSP (0.6 mM), 5–20% sucrose gradient with 40% cushion, 100,000xg, 180 min, 4°C; fractions read by fluorescence
molecule,measurement,setting,value
ClpXP (from UniProt P0A6H1 1-424; P0A6G7 15-207) (complex),degradation of Gfp-ZC67 (3 μM) by ClpXP (1 μM) with ATP (5 mM): loss of Gfp fluorescence after 60 min (% of the initial fluorescence),Gfp-ZC67 (E. coli),25
same,"degradation of Gfp-ZC67(R379E) (3 μM) by ClpXP (1 μM) with ATP (5 mM): loss of fluorescence with time, against Gfp-ZC67 (% more slowly than Gfp-ZC67)",[1],50
B1,binding result,[2],binds
B2,stoichiometry N,[3],2
